For this assay, the target named is T1, LgTrip 3092 (SEQ ID NO: 19).
T1 construct: also called LgTrip 3092 His; ATG 3092
As to the kind of experiment: tripartite luminescence complementation (with pep86 as third part).

On to GSMLFRVTINS [SmTrip9 pep245], for which the binding result is “binds”.

For the origin of these results see patent US20200270586A1 (PROMEGA, published 2020).
